Experiment: soluble on expression in E. coli; label from the status in PepcDB or PDB records

Sequence | soluble on expression in E. coli
SLSAAEADLAGKSWAPVFANKNANGDAFLVALFEKFPDSANFFADFKGKSVADIKASPKLRDHSSTIFTRLNEFVNNAANAGKMSAMLSQFAKEHVGFGVGSAQFENVRSMFPGFVASVAAPPAGADAAWTKLFGLIIDALKAAGK | soluble
MSTNPFAILRLPESALRKSINQMGLMEQFSLSVLSNKTKHAVTMLPEVKNDVSITMTSSLELLLSNHSQDVDFIFEMDSHYPNVEIRQRFDNARCRFTQLSIPGFTVKHWIEHIVDVFCKNQGVALIFESIMRERFYELYEIIKNIKIVHLEPFSSQIQDYQRLTLFPSLEWLTVIGVDEAPIGTPILIQNFEGFIIFPNIQWKIDDVLISNFSNLRMWHRTFSVQDLNLFMRQWIKGSMPRLEEFDVILSHSNQHKLVETDLFKSIKYTVKENENCKINVIKRRDGAKASVCFGGKSSYEFHFTVESEPD | not soluble
MYSFELDKLKIELKTWEHDFIDKNKREPTRDDIKSLRTVRQMYKQYSTLKKKQSLQRQKVDTQESVELPAHKKDHDEVVEIGPTPQVYGKAISIFDMNLSPIKPIYMTFTNNIDVNNDNSKTISNESSPRKTILLKSSPADRTLVAEPISSVKRQLNFQMLNASSTRTPTSSPCKNRNGKLVEIKKCSPTINPPLESGKPSGYYGPNSPLKLDEENIHLNISLNSSTKRRLQIAYPSLQKTPSKDQADISTSFSPSPLIRRPLTKSLIELAREHTEIVKEFGVLQEEDIEEEEEGEEGENGYDEKNHEDDFGLEDELIRPKVVKDIFQEDDDNDDSQAREDTFIRKRPKRRKVIRRLRDNDPETETAGFERDVHKELVKLKRRKVAEFLGSTSQISDTEFEHDPEASSGVVSSEQKPTAKRKGRKKYNLVSNNFRRLKLPKKNRFSNGRWGRR | not soluble
MNEDMEFFNRFSHMYLHGFKNLSDMFAEPATEHGITLDEFYILYDIAEAKGKIRLMDIAESHGVTRSAISRLIGRLLRKDYLYQEAEDHDRRNKVLKLTPEGARIEHEVFTELIQRNREWRQSFSLAKQYQTLNLVEEFMDKFVNEDASKQTKKATYADTDLKRAEA | not soluble
MSLMNAEQGVCAWAMNHPLEREYHDKEWGRAVHDDTKLFEFLTLEGAQAGLSWLTVLKKREGYRQAFLGYDLQRLAQCDESHVEQIIAEYDVVKHRGKIASVFSNARAALALQQEFGSLDAALWQFVGGQPKINRWVSMSDVPASTEESKAMSKFLKKRGFKFVGETICYAFMQACGLVNDHLVGCPNHSNADKLEGGSHHHHHH | soluble
MDFPRIIMARNPIYFESIQIGEKIEGLPRTVTETDIWTFAYLTADFFPLHTDVEFAKKTIFGKPIAQGMLVLSIALGMVDQVILSNYDVSSVIAFFGIKDVRFLRPVFIGDTIAASAEVVEKQDFDEKSGVVTYKLEVKNQRGELVLTALYSALIRKTPSK | soluble
MSSAQRVVITPGEPAGSGPDLVVQLAQRAWPIELVVCADGALLTERAAMLGLPLSLLPYSPDVPAAPQPAGTLTLLPVSLRAPAISGQLTVENGPYVVETLARACDGCLNGEFAALITGPVHKGVINDAGISFTGHTEFFEERSQAKKVVMMLATEELRVALATTHLPLRAIADAITPALLHEVIAILHHDLRTKFGIAEPRILVCGLNPHAGEGGHMGTEEIDTIIPVLDELRAQGMKLNGPLPADTLFQPKYLDNADAVLAMYHDQGLPVLKYQGFGRGVNITLGLPFIRTSVDHGTALELAGRGKADVGSFITALNLAIKMIVNTQ | soluble
PETLVKVKDAEDQLCRTSHRPCRVGYIELDLNSGKILESFRPEERFPMMSTFKVLLCGAVLSRIDAGQEQLGRRIHYSQNDLVKYSPVTEKHLTDGMTVRELCSAAITMSDNTAANLLLTTIGGPKELTAFLHNMGDHVTRLDRWEPELNEAIPNDERDTTMPVAMATTLRKLLTGELLTLASRQQLIDWMEADKVAGPLLRSALPAGWFIADKSGAGRRGSRGIIAALGPDGKPSRIVVIYTTGSRKKTDERNRQIAEIGASLIKHWGLEQKLISEEDLNSAVDHHHHHH | soluble
MVRIRRAGLEDLPGVARVLVDTWRATYRGVVPEAFLEGLSYEGQAERWAQRLKTPTWPGRLFVAESESGEVVGFAAFGPDRASGFPGYTAELWAIYVLPTWQRKGLGRALFHEGARLLQAEGYGRMLVWVLKENPKGRGFYEHLGGVLLGEREIELGGAKLWEVAYGFDLGGHKW | soluble
NKNFSWNTDWTYSLNREKIKALNSGVTRDEGNLWFVGSPTQVFYDYKKIGIWQLGEEVQAKAFGGFKPGDIKVADMSPKGSEGEGVFSTDDRVIFSRVPKYTFGITNNIIYKNFDLMFFIYGRIGQYVKDAYTQLYKPSALENSAPVNYWTPENPSNEYPRPNSGYSTNSYLLQSSLAFRKASFVKIRDITLGYTLPKEWTSKMMVQKLRIYCSLNNFITFTDFPNYDPESNGSMDFPLAKQVLFGINLSL | not soluble
MLRFPENVVICDGKRILWNGLGLPENLVFEMARTVLESNVPLKGKIFCFPAQTVLGKMAIFTDEKTQGRDVLVELLNHELLRMRLYSEEVENLVEVLFNDWRPGKRVFIVRSKNFETRLSLREKLSSFADVIYNAGEIDVGIAPAGTLLQINEEKVSFSDPERDIKEAVRKALLIDRYVNEPFSFYEKLPAYNFSLNIQIPELVKIFLRTGDIQKTSELTEKNVEVVFREILKFEKKTLLSPRIPVEAFLILKGGLD | not soluble
GPGSMNRDPQNALLLEQMAQKTKRLLLQRSPSTVNGIRSFSRSLGIADDLGSTQVTAEELQHALQENNVSLEEHELQNIFTVLDRTGKGTIDPTDFIAVMCNNLGPLRKVWLRRVWRMFTKDPDDGSVQVCELQRQFIAEGHPAVVRHETTAAEVRKDFESAFNESTNPDGKISAQEFAEYYAGVSVSCSNDESFVALLRGVWPLPGVSRDFSLSLAKGEAQYQGSYHTEQSLAEKTAVASREAVRSALMRMIRCDHAPVALSSGAAARALCLSLAQADEAGSGFVSEAVFVGALRTHRLYVPNTSVLECLDTNGDGTVDIKYYEELLLPSPSAARLMLLARLWSRCFENKDAAYRVPVQDLHRKYHASSPADKDAFLTAWDVRTAVGGKVELEELVQWYVPQSAAVQRDKDFEALLHRQWGKYDE | soluble
MSLTKRWFNVGKIVNTHGIKGEVRVISKTDFAEERYKPGNTLYLFMDGRNEPVEVTVNTHRLHKQFHLLQFKEGQNLNEVEELKNAIIKVPEEELGELNEGEFYFHEIIGCEVFTEEGELIGKVKEILTPGANDVWVIGRKGKKDALIPYIESVVKHIDVREKKIEIELMEGLIDEEGGSHHHHHH | soluble
MANCENNPWKKNAWGKNEETAEEPIVSFADVLSEEFIEDLSVQEKLEEERYMKQLDQMFGDTSVSDDQLPINTEGMTDEEVALALQRHFDREADVARAVGSSSSVHFTPDRYHPKTMQETDSENEDDDALRQAATDMLYAKLDEENATNSRLRPEGPSTSRTKHDTGVSGRRNADKTFNDRNTLPTGDMVGDKLNNKVFNKLMAFGKSESKRQMRNKDKEEKATMDTSVDSDTRLLLLKWINQGVFDSVDGIIATGKESAVLHAAQDSATSYAIKVYKTTLSEFKNRSEYVKDDFRFKNPRGVLKIWAEREFMNLSRMAKHGLPCPQPVKVRRNVLVMSFLGDQGLAAPRLKNVEWEFFTDDERRNVYDQVQSIMCRMYKECLLVHADLSEFNLLLTPDNKVHVIDVSQAMDLSHPRSLQFLTRDIQNIITFFTRIGTPNLPTYVQLFNLITDLDMVEDHDLLVQVEQFSEENRSVDLRHDKSRPADMELKKYNEEKKANRGISPAREYN | not soluble
MAFLGLFSLLVLQSMATGATFPEEAIADLSVNMYNRLRATGEDENILFSPLSIALAMGMMELGAQGSTQEEIRHSMGYDSLKNGEEFSFLKEFSNMVTAKESQYVMKIANSLFVQNGFHVNEEFLQMMKKYFNAAVNHVDFSQNVAVANYINKWVENNTNNLVKDLVSPRDFDAATYLALINAVYFKGNWKSQFRPENTRTFSFTKDDESEVQIPMMYQQGEFYYGEFSDGSNEAGGIYQVLEIPYEGDEISMMLVLSRQEVPLATLEPLVKAQLVEEWANSVKKQKVEVYLPRFTVEQEIDLKDVLKALGITEIFIKDANLTGLYDNKEIFLSKAIHKSFLEVNEEGSEAAAVSGMIAISRMAVLYPQVIVDHPFFFLIRNRRTGTILFMGRVMHPETMNTSGHDFEEL | soluble
GMSNINYVILTVASVDFSYRETMARLMSSYSKDLIDNAGAKGTRFGSIGTGDHAGSLIFIQFYDDLTGYQKALEIQSKSSVFKEIMDSGKANIYLRNISTSLPTKFEQSYEHPKYIVLTRAEAAMSDKDKFLNCINDTASCFKDNGALTLRFGNLLTGSNVGNYLLGVGYPSMEAIEKTYDELLAHSSYKELMTFAKVNMRNIIKIL | soluble
MNVDLHCHSTASDGALSPTALVARAHEYGVRVLSLTDHDTLEGLEEARTAAHSLGMQLVNGVELSCTWGGATIHVLGYGFDTQAPALTEAIARLHEGRWLRAEEISRKLAIKGMPGALEGARAIQQALGDSGNAPARPHFADFMVRAGFVKDRAEAFRKWLGAGKLGDVKQHWPTLEDTVATLRASGAWVSLAHPSHYDFTRSKRRKLVGDFVQAGGHAIEVVNGMQPADQVGTLAILAREFGLLVSAGSDFHGPGNWGEIGTYRPVPEDLPPLWCRF | soluble
MSLTILQELPKLSPLPARKLGSYTCKTVHMTTTELLPFHAVGTSPDAAAQADSNIETQFANVLHSLQVNKQRDPFDIIQDFKQICADRALSTRDKLSLDESNTALAEEFDNWDLEFKLWELVDRLFRFRALFSNKAKTELLREYDFSSMGIKQENFLRKNPAIRELSIIILWLQSHTPSLVGDETESYQTKWKNTAMAVANSDFDVLASRATDADLIDKLDIDAPLRSNRSIHPADESNDSKVFAQIYKLLLQDRVQDAIDIANNTGNYALALILVGATQEYFDPVLDKQDLDFDSIVAEQTKPSGIKHKLLWKKTVYKLSQQANLNKYEKLIYNYLCGGDISGNLLVASDDWEQTLLLYLSQLYSYNIDNFIVSQLSSEQEILPVNIPKPQLNTIAEILNTILHSGNLLTQQSENPLRVIMGSVMLDNVPSLLHNLTSSLTGEPEALKKPYISRVLTHLAIFQLLVVGTDNINNEDITTIITSYTSKLAEYKLPELIPIYLSFVPNEKDSREAYALFLSSLTDSSDRSKQIEISRRIANSISEVDEAMELAANTQEDKMMNVLRRTVERVMKDTESHYKPQAVIEVQDDINSVDDIDSKLYHSVEWFYENKMYEDAIVATIAIIRRFLLCGKLAPLKAFSKGKNFKLLLVEYDTQLQTKSLIFQNEPEIVTEEDKEELLAYASLIEGLILIDEWKKFVSTQINSEGHHHHHH | not soluble
MGSDKIHHHHHHMRYAIYFSPAKDHPLTEAASRWLGRNAFSGTLHDDHDDYADLTEEPRRYGFHATLKAPFELAEKYSEAELLAAVEDFAANQSAFEIPRVVVGALGPFFALVPDRVYQPLQDFAAEVVDHFDRFRAPLSETDIARRRPQMLTESQRQNLSLWGYPHVMDDFRFHMTLTGRIDEEEQPAMQEILSTRFAEFVDQPLAISGLALFIEETRGAPFTVHRWHPLGQQPKKDANP | not soluble
MAHHHHHHMLTDNQNCLEMERSDKRVTVALINTRSGERTAAEFVRKQMETHLGEENVFYLFPSGKPAIAEAKKFLERHNPAVVIVAGGDGTVSLALDITDGLRRTNMLSATSAYVAVLPMGTGNDLSRTLGFGGGYVKPLLNPEKKFKRLLDRLAHAKGIKMDRWSVQIQKKSTLTVASTGEDAHAGDSSRTYGVDDVHVVEKTMMNYFSIGFDATIVRQFNDFRNDHPTMCSQRSLNKLWYGCFGCGSMCNSVALPRKQMKLTVDDKCVAIPPGTKALLVTNVKTYAGGAVLWKDNRCRFAKPDVGDGLLEVTALYGVWHFAGVRMGIRKAMKVAQGNCIRIETPAYFAMQLDGEPVDELACGEEMIDVSITFFSRTLVMTCEGS | not soluble
